Test results taken from patent US20030148343.

Test system: RSG1.2 peptide (synthetic)
Assay: FP
Details: about fifty fold greater RNA concentration than RRE1 required for similar polarization; 150 mM KCl, 5 mM MgCl2

GGCUGGUAUGGGCGCAGCGUCAAUGACGCUGCGCCCAGGCCAGCC [RRE2 hairpin]
fold-higher RNA concentration than RRE1 for similar polarization: 50 fold
